From patent publication CN1827647A (SHANGHAI ZHANGJIANG BIO TECH C, dated 2006) come the findings set out here.

In this assay the target is T1, EGFR蛋白 (表皮生长因子受体, 购自晶美生物公司) (UniProt P00533 25-645, limits assumed).
T1 construct: Bought protein used as the coating antigen; also called c-erbB1/Her1
In words: Scatchard analysis; concluding sentence on the result.

B1: 3C6单克隆抗体 (重组人源抗EGFR单克隆抗体, produced by CHO cell line 3C6) (antibody, V domains shown)
VH: QVQLKESGPGLVAPSQSLSITCTVSGFSLTNYGVHWVRQPPGKGLEWLGVIWSGGNTDYNTPFTSRLNISKDNSKSQVFLRMYSLQTDDTARYYCARALTYYDYEFAYWGQGTLVTVSS
VL: not shown
A word on the Kd: it is the free concentration of one partner at which half of the binding sites on the other are occupied at equilibrium, for simple one-to-one binding. Lower therefore signals a tighter complex. As to B1, the Kd was roughly 1 nM.
